Assay results as given in US20110091971A1, “Differentiation of Pluripotent Stem Cells” (priority 2008, published 2011).

Tested on: H1 or H9 human embryonic stem cells
Assay: Activin A bioassay: differentiation of human embryonic stem cells to definitive endoderm, cell number and SOX17 intensity by high content analysis (96-well, four days);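 as to Cell Number average: Raw total cell count per well from high content imaging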;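 as to Sox 17 Intensity average: total fluorescence of the cell multiplied by cell area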
Type: cell-based
Conditions: for Sox 17 Intensity % of control: control = R&D Sys Activin A 100 ng/ml on same plate
How it was run: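 Read-out was cell count and integrated SOX17 immunofluorescence by high-content imaging, with each well divided by the mean of the 100 ng/ml activin A control. Over the four-day culture, test samples were given in DMEM:F12 with 0.5% FCS plus 20 ng/ml Wnt3a for the first two days and in 2% FCS alone for the last two. Cells were H1 or H9 hESC clusters grown on Matrigel.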

[1] = supernatant concentration 10x, assay dilution 1:20, assay plates #007, #009, #010
[2] = supernatant concentration 10x, assay dilution 1:20
[3] = supernatant concentration 50x, assay dilution 1:20, assay plates #008, #009
[4] = supernatant concentration 50x, assay dilution 1:20
[5] = supernatant concentration 1x, assay dilution 1:20
[6] = supernatant concentration 10x, assay dilution 1:40

B1: ACTN66: activin A variant peptide, SEQ ID 67 (protein)
chain: GLECDGKVNICCKKQMFGQAKDIGWNDWIIAPSGYHGGGCTGECPSHIAGTSGSSLSFHSTVINHYRMRGHSPWANLKSCCSPTKLRPMSMLYYDDGQNIIKKDIQNMVVEECGCT
- Cell Number average [1]: 13360
- Sox 17 Intensity average [1]: 4.84E+05
- Sox 17 Intensity % of control [2]: 2.2%
- Cell Number average [3]: 16460
- Sox 17 Intensity average [3]: 3.39E+06
- Sox 17 Intensity % of control [4]: 6.1%

B2: ACTN70: activin A variant peptide, SEQ ID 71 (protein)
chain: GLECDGKVNICCKKQLFGQAKDIGWNDWIIAPSGYHGGGCSGECPSHIAGTSGSSLSFHSTVINHYRMRGHSPVANLKSCCSPTKLRPMSMLYYDDGQNIIKKDIQGMVVEECGCT
- Cell Number average [1]: 12551
- Sox 17 Intensity average [1]: 9.67E+05
- Sox 17 Intensity % of control [2]: 4.4%
- Cell Number average [3]: 16071
- Sox 17 Intensity average [3]: 3.20E+06
- Sox 17 Intensity % of control [4]: 5.8%

B3: ACTN86: activin A variant peptide, SEQ ID 87 (protein)
chain: GLECDGKVNICCKKQSFGKTKDIGWNDWIIAPSGYHGGGCSGECPSHIAGTSGSSLSFHSTVINHYRMRGHSPWANLKSCCSPTKLRPMSMLYYDDGQNIIKKDIQNMVVEECGCT
- Cell Number average [1]: 11821
- Sox 17 Intensity average [1]: 7.45E+05
- Sox 17 Intensity % of control [2]: 3.4%
- Cell Number average [3]: 17034
- Sox 17 Intensity average [3]: 2.34E+06
- Sox 17 Intensity % of control [4]: 4.2%

B4: ACTN67: activin A variant peptide, SEQ ID 68 (protein)
chain: GLECDGKVNICCKKQSFGQTKDIGWNDWIIAPSGYHGGGCSGECPSHIAGTSGSSLSFHSTVINHYRMRGHSPWANLKSCCSPTKLRPMSMLYYDDGQNIIKKDIQNMKVEECGCT
- Cell Number average [1]: 12653
- Sox 17 Intensity average [1]: 4.44E+05
- Sox 17 Intensity % of control [2]: 2.0%
- Cell Number average [3]: 14821
- Sox 17 Intensity average [3]: 3.50E+06
- Sox 17 Intensity % of control [4]: 6.3%

B5: ACTN83: activin A variant peptide, SEQ ID 84 (protein)
chain: GLECDGKVNICCKKQSFGRAKDIGWNDWIIAPSGYHGGGCTGECPSHIAGTSGSSLSFHSTVINHYRMRGHSPFANLKSCCSPTKLRPMSMLYYDDGQNIIKKDIQGMKVEECGCT
- Cell Number average [1]: 12084
- Sox 17 Intensity average [1]: 5.39E+05
- Sox 17 Intensity % of control [2]: 2.4%
- Cell Number average [3]: 15829
- Sox 17 Intensity average [3]: 9.01E+06
- Sox 17 Intensity % of control [4]: 16.3%

B6: ACTN80: activin A variant peptide, SEQ ID 81 (protein)
chain: GLECDGKVNICCKKQSFGQTKDIGWNDWIIAPSGYHGGGCSGECPSHIAGTSGSSLSFHSTVINHYRMRGHSPWANLKSCCAPTKLRPMSMLYYDDGQNIIKKDIQNMKVEECGCV
- Cell Number average [1]: 9898
- Sox 17 Intensity average [1]: 4.08E+05
- Sox 17 Intensity % of control [2]: 1.8%
- Cell Number average [3]: 14686
- Sox 17 Intensity average [3]: 3.52E+06
- Sox 17 Intensity % of control [4]: 6.4%

B7: ACTN88: activin A variant peptide, SEQ ID 89 (protein)
chain: GLECDGKVNICCKKQSFGQTKDIGWNDWIIAPSGYHGGGCSGECPSHIAGTSGSSLSFHSTVINHYRMRGHSPWANLKSCCSPTKLRPMSMLYYDDGQNIIKKDIQNMVVEECGCT
- Cell Number average [1]: 11583
- Sox 17 Intensity average [1]: 6.21E+05
- Sox 17 Intensity % of control [2]: 2.8%
- Cell Number average [3]: 15317
- Sox 17 Intensity average [3]: 2.87E+06
- Sox 17 Intensity % of control [4]: 5.2%

B8: ACTN68: activin A variant peptide, SEQ ID 69 (protein)
chain: GLECDGKVNICCKKQSFGKAKDIGWNDWIIAPSGYHGGGCTGECPSHIAGTSGSSLSFHSTVINHYRMRGHSPFANLKSCCSPTKLRPMSMLYYDDGQNIIKKDIQGMKVEECGCT
- Cell Number average [1]: 13395
- Sox 17 Intensity average [1]: 1.43E+06
- Sox 17 Intensity % of control [2]: 6.5%
- Cell Number average [3]: 15926
- Sox 17 Intensity average [3]: 1.83E+06
- Sox 17 Intensity % of control [4]: 3.3%

B9: ACTN92: activin A variant peptide, SEQ ID 93 (protein)
chain: GLECDGKVNICCKKQSFGQAKDIGWNDWIIAPSGYHGGGCSGECPSHIAGTSGSSLSFHSTVINHYRMRGHSPFANLKSCCSPTKLRPMSMLYYDDGQNIIKKDIQGMKVEECGCT
- Cell Number average [1]: 14298
- Sox 17 Intensity average [1]: 5.60E+05
- Sox 17 Intensity % of control [2]: 2.5%
- Cell Number average [3]: 15009
- Sox 17 Intensity average [3]: 3.32E+06
- Sox 17 Intensity % of control [4]: 6.0%

B10: ACTN93: activin A variant peptide, SEQ ID 94 (protein)
chain: GLECDGKVNICCKKQSFGQTKDIGWNDWIIAPSGYHGGGCTGECPSHIAGTSGSSLSFHSTVINHYRMRGHSPFANLKSCCSPTKLRPMSMLYYDDGQNIIKKDIQNMKVEECGCT
- Cell Number average [1]: 13409
- Sox 17 Intensity average [1]: 5.87E+05
- Sox 17 Intensity % of control [2]: 2.7%
- Cell Number average [3]: 15900
- Sox 17 Intensity average [3]: 2.67E+06
- Sox 17 Intensity % of control [4]: 4.8%

B11: ACTN73: activin A variant peptide, SEQ ID 74 (protein)
chain: GLECDGKVNICCKKQSFGQAKDIGWNDWIIAPSGYHGGGCSGECPSHIAGTSGSSLSFHSTVINHYRMRGHSPFANLKSCCSPTKLRPMSMLYYDDGQNIIKKDIQGMVVEECGCT
- Cell Number average [1]: 10569
- Sox 17 Intensity average [1]: 8.27E+05
- Sox 17 Intensity % of control [2]: 3.7%
- Cell Number average [3]: 16351
- Sox 17 Intensity average [3]: 3.13E+06
- Sox 17 Intensity % of control [4]: 5.7%

B12: ACTN2: activin A variant peptide, SEQ ID 3 (protein)
chain: GLECDGKVNLCCKKQNFVSFKDIGWNDWIIAPSGYHANECTGKCPSHIAGTSGSSLSFHSTVINHYRMRGHSPFSDLGSCCIPTKLRPMSMLYYDDGQNIIKKDIQNMIVEECGCS
- Cell Number average [5]: 4057
- Sox 17 Intensity average [5]: 1.756E+07
- Sox 17 Intensity % of control [5]: 9.5%
- Cell Number average [2]: 2965
- Sox 17 Intensity average [2]: 2.299E+07
- Sox 17 Intensity % of control [2]: 12.5%
- Cell Number average [6]: 2232
- Sox 17 Intensity average [6]: 1.280E+07
- Sox 17 Intensity % of control [6]: 7.0%

B13: ACTN27: activin A variant peptide, SEQ ID 28 (protein)
chain: GLECDGKVNLCCKKQLFVSFKDIGWNDWIIAPSGYHANHCDGKCPSHIAGTSGSSLSFHSTVINHYRMRGHSPFANRGACCIPTKLRPMSMLYYDDGQNIIKKDIQNMIVEECGCS
- Cell Number average [1]: 6664
- Sox 17 Intensity average [1]: 1.39E+07
- Sox 17 Intensity % of control [2]: 55.7%
- Cell Number average [3]: 6857
- Sox 17 Intensity average [3]: 2.82E+07
- Sox 17 Intensity % of control [4]: 113.1%
